Laboratory results from PMC2001758.

Biological target: high affinity saturable binding sites for LDL on the human non-small cell lung tumour line L-DAN (LDL-receptors) (human (endogenous in L-DAN)) (UniProt P01130)
Experiment: radioligand binding; 125I-labelled LDL on cells of the human non-small cell lung tumour line L-DAN; saturable binding

high affinity saturable binding sites for LDL on the human non-small cell lung tumour line L-DAN (LDL-receptors) (human (endogenous in L-DAN)), sequence (P01130 22-860): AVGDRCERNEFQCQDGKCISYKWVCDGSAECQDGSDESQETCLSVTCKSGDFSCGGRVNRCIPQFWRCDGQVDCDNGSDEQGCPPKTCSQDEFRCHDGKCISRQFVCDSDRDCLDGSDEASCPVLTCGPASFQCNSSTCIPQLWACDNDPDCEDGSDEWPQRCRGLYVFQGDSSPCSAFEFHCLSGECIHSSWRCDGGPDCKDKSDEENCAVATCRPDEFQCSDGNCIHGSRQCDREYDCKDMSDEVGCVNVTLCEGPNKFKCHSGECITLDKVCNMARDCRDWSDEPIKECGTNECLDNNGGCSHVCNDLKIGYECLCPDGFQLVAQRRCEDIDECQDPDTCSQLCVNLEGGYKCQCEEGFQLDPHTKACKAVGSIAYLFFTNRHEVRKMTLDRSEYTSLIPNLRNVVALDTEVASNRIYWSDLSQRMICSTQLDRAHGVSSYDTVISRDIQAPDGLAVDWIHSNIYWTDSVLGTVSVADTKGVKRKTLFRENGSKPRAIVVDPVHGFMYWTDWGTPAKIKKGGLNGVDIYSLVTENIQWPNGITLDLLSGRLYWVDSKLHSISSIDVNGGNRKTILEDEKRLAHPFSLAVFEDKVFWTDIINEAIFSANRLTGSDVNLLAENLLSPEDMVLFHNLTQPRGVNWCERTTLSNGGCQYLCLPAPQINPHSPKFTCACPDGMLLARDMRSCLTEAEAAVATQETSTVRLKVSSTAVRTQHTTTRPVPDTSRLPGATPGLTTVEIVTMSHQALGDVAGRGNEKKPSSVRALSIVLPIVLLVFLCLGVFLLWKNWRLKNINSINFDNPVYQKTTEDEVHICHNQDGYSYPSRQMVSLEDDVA

Km (p ml ' (as printed, garbled)): 40
Substance: low density lipoprotein (LDL) (from UniProt P04114 28-4563)
